The record followed here is publication PMC11884936, “MDC1 mediates Pellino recruitment to sites of DNA double-strand breaks” (Life Science Alliance, 2025).

In assay [1] the target is RNF8 (UniProt O76064). In words: biotin-peptide pull-down, Western blot. For orientation: A western blot detects proteins with antibodies after separation by electrophoresis.
Assay [2] addresses Pellino 2 (PELI2) FHA domain, 1-275 (UniProt Q9HAT8). In words: biotin-peptide pull-down, stained gel.
A further assay addresses MDC1 (UniProt Q14676). The experiment in a line: biotin-peptide pull-down, Western blot. Particulars: reference: unphosphorylated S139 peptide; sites S139.
The target in assay [3] is RNF8 (UniProt O76064). The experiment in a line: biotin-peptide pull-down, LC-MS/MS. Particulars: reference: unphosphorylated T752 peptide; sites T752.
The next assay has as its target Pellino 1 (PELI1) (UniProt Q96FA3). In words: biotin-peptide pull-down, LC-MS/MS. Conditions: reference: unphosphorylated T752 peptide; sites T752.
A further assay deals with Pellino 2 (PELI2) (UniProt Q9HAT8). In words: biotin-peptide pull-down, LC-MS/MS. Particulars: reference: unphosphorylated T752 peptide; sites T752.
[4] abbreviates: reference: unphosphorylated T719 peptide, sites T719.
Where [5] appears, read: reference: unphosphorylated T752 peptide, sites T752.

With “MDC1 (from UniProt Q14676) pT719 peptide”, the “binding against the reference” value is recorded as “stronger” in the assay with RNF8 [1] (setting [4]) and “gained” in assay [2] (setting [4]).
Turning to “MDC1 (from UniProt Q14676) pT765 peptide”, in the assay with RNF8 [1] (reference: unphosphorylated T765 peptide, sites T765), the “binding against the reference” value was “stronger”.
Turning to “H2AX (from UniProt P16104) pS139 peptide”, the “binding against the reference” value with MDC1 is “stronger”.
For the substance “MDC1 (from UniProt Q14676) pT699 peptide”, the “binding against the reference” value in the assay with RNF8 [1] (reference: unphosphorylated T699 peptide, sites T699) is reported as “stronger”.
In the case of “MDC1 743-757 (from UniProt Q14676) pT752 peptide”, the “binding against the reference” value in the assay with RNF8 [3] is on record as “gained”; with Pellino 1 (PELI1), “gained”; with Pellino 2 (PELI2), “gained”; with RNF8 [1] (setting [5]) it was “stronger”; in assay [2] (setting [5]) it was “gained”.
